{"source": "patent US20220017589A1", "about": "(BEIJING QL BIOPHARMACEUTICAL, published 2022)", "binders": {"B1": {"name": "MLC022 (ligand)", "chain": "HGEGTFTSDVSSYLEEQAAKEFIAWLVRGGGGQEPGQEPGQEPGQEPGQEPGQEPARQGDHCPLGPGRCCRLHTVRASLEDLGWADWVLSPREVQVTMCIGACPSQFRAANLHAQIKTSLHRLKPDTVPAPCCVPASYNPMVLIQKTDTGVSLQTYDDLLAKDCHCI"}, "B2": {"name": "MLC006 (ligand)", "chain": "HGEGTFTSDVSSYLEEQAAREFIAWLVRGKGGQEPGQEPGQEPGQEPGQEPGQEPGQEPGQEPGAQPGAQPARQGDHCPLGPGRCCRLHTVRASLEDLGWADWVLSPREVQVTMCIGACPSQFRAANLHAQIKTSLHRLRPDTVPAPCCVPASYNPMVLIQRTDTGVSLQTYDDLLARDCHCI", "modifications": "Moiety A (HOOC-(CH2)16-CO-gGlu-2XADO) on 36K of GLP-1 (30K of fusion polypeptide)"}, "B3": {"name": "MLC009 (ligand)", "chain": "B2 chain with K30G, E46K", "modifications": "Moiety A (HOOC-(CH2)16-CO-gGlu-2XADO) on 15K of Linker (46K of fusion polypeptide)"}, "B4": {"name": "MLC007 (ligand)", "chain": "B2 chain with K30G, G32K", "modifications": "Moiety A (HOOC-(CH2)16-CO-gGlu-2XADO) on 1K of Linker (32K of fusion polypeptide)"}, "B5": {"name": "MLC002 (ligand)", "chain": "B2 chain with R20K, K30G", "modifications": "Moiety A (HOOC-(CH2)16-CO-gGlu-2XADO) on 26K of GLP-1 (20K of fusion polypeptide)"}, "B6": {"name": "MLC008 (ligand)", "chain": "B2 chain with K30G, Q37K", "modifications": "Moiety A (HOOC-(CH2)16-CO-gGlu-2XADO) on 6K of Linker (37K of fusion polypeptide)"}, "B7": {"name": "MLC012 (ligand)", "chain": "B2 chain with K30G, P43K, A65Q, Q66E, A69Q, Q70E", "modifications": "Moiety A (HOOC-(CH2)16-CO-gGlu-2XADO) on 12K of Linker (43K of fusion polypeptide)"}, "B8": {"name": "MLC003 (ligand)", "chain": "B2 chain with R20K, K30G"}, "B9": {"name": "MLC030 (ligand)", "chain": "HGEGTFTSDVSSYLEEQAAREFIAWLVRGGGGQEPGQEPGQEPGQKPGQEPGQEPGQEPGQEPGAQPGAQPGAQPGAQPGAQPGAQPGAQPGAQPGAQPGAQPGAQPGAQPARQGDHCPLGPGRCCRLHTVRASLEDLGWADWVLSPREVQVTMCIGACPSQFRAANLHAQIKTSLHRLRPDTVPAPCCVPASYNPMVLIQRTDTGVSLQTYDDLLARDCHCI", "modifications": "Moiety A (HOOC-(CH2)16-CO-gGlu-2XADO) on 15K of Linker (46K of fusion polypeptide)"}, "B10": {"name": "MLC023 (ligand)", "chain": "HGEGTFTSDVSSYLEEQAAKEFIAWLVRGGGGQEPGQEPGQEPARQGDHCPLGPGRCCRLHTVRASLEDLGWADWVLSPREVQVTMCIGACPSQFRAANLHAQIKTSLHRLKPDTVPAPCCVPASYNPMVLIQKTDTGVSLQTYDDLLAKDCHCI"}, "B11": {"name": "MLC100 (ligand)", "chain": "HGEGTFTSDVSSYLEEQAAKEFIAWLVRGGGGQEPARQGDHCPLGPGRCCRLHTVRASLEDLGWADWVLSPREVQVTMCIGACPSQFRAANLHAQIKTSLHRLKPDTVPAPCCVPASYNPMVLIQKTDTGVSLQTYDDLLAKDCHCI"}, "B12": {"name": "MLC021 (ligand)", "chain": "HGEGTFTSDVSSYLEEQAAKEFIAWLVRGGGGQEPGAQPGQEPGAQPGQEPGAQPGQEPGAQPGQEPGAQPGQEPGAQPGAQPGAQPGAQPGAQPGAQPGAQPGAQPGAQPARQGDHCPLGPGRCCRLHTVRASLEDLGWADWVLSPREVQVTMCIGACPSQFRAANLHAQIKTSLHRLKPDTVPAPCCVPASYNPMVLIQKTDTGVSLQTYDDLLAKDCHCI"}, "B13": {"name": "MLC016 (ligand)", "chain": "B12 chain with K20R, P83K, K180R, K202R, K218R", "modifications": "Moiety A (HOOC-(CH2)16-CO-gGlu-2XADO) on 52K of Linker (83K of fusion polypeptide)"}, "B14": {"name": "MLC004 (ligand)", "chain": "B12 chain with K180R, K202R, K218R", "modifications": "Moiety A (HOOC-(CH2)16-CO-gGlu-2XADO) on 26K of GLP-1 (20K of fusion polypeptide)"}, "B15": {"name": "MLC047 (ligand)", "chain": "B12 chain with K20R, P71K, K180R, K202R, K218R", "modifications": "Moiety A (HOOC-(CH2)16-CO-gGlu-2XADO) on 40K of linker (71K of fusion polypeptide) per Table 2; Table 3 prints 41K of linker"}, "B16": {"name": "MLC019 (ligand)", "chain": "B12 chain with K180R, K202R, K218R"}, "B17": {"name": "MLC096 (ligand)", "chain": "B12 chain with V198R"}, "B18": {"name": "MLC013 (ligand)", "chain": "B12 chain with K20R, G32K, K180R, K202R, K218R", "modifications": "Moiety A (HOOC-(CH2)16-CO-gGlu-2XADO) on 1K of Linker (32K of fusion polypeptide)"}, "B19": {"name": "MLC064 (ligand)", "chain": "B12 chain with K20R, Q82K, K180R, K202R, K218R", "modifications": "Moiety A (HOOC-(CH2)16-CO-gGlu-2XADO) on 51K of Linker (82K of fusion polypeptide)"}, "B20": {"name": "MLC097 (ligand)", "chain": "EGTFTSDVSSYLEEQAAKEFIAWLVRGGGGQEPGAQPGQEPGAQPGQEPGAQPGQEPGAQPGQEPGAQPGQEPGAQPGAQPGAQPGAQPGAQPGAQPGAQPGAQPGAQPARQGDHCPLGPGRCCRLHTVRASLEDLGWADWVLSPREVQVTMCIGACPSQFRAANLHAQIKTSLHRLKPDTVPAPCCVPASYNPMVLIQKTDTGVSLQTYDDLLAKDCHCI"}, "B21": {"name": "MLC043 (ligand)", "chain": "HGEGTFTSDVSSYLEEQAAKEFIAWLVRGGGGQEPGAQPGQEPGAQPGQEPGAQPGQEPGAQPGQEPGAQPGQEPGAQPGAQPGAQPGAQPARQGDHCPLGPGRCCRLHTVRASLEDLGWADWVLSPREVQVTMCIGACPSQFRAANLHAQIKTSLHRLRPDTVPAPCCVPASYNPMVLIQRTDTGVSLQTYDDLLARDCHCI", "modifications": "Moiety A (HOOC-(CH2)16-CO-gGlu-2XADO) on 26K of GLP-1 (20K of fusion polypeptide)"}, "B22": {"name": "MLC124 (ligand)", "chain": "B21 chain"}, "B23": {"name": "MLC102 (ligand)", "chain": "HGEGTFTSDVSSYLEEQAAKEFIAWLVRGGGGQEPGAQPGQEPGAQPGQEPGAQPGQEPGAQPGQEPGAQPGQEPGAQPGAQPGAQPGAQPGAQPGAQPGAQPGAQPGAQPGAQPGAQPGAQPGAQPGAQPGAQPGAQPGAQPGAQPGAQPARQGDHCPLGPGRCCRLHTVRASLEDLGWADWVLSPREVQVTMCIGACPSQFRAANLHAQIKTSLHRLKPDTVPAPCCVPASYNPMVLIQKTDTGVSLQTYDDLLAKDCHCI"}, "B24": {"name": "MLC026 (ligand)", "chain": "HGEGTFTSDVSSYLEEQAAREFIAWLVRGGGGAQPGAQPGAQPGAQPGAQPGAQPGAQPGAQPGAQPGAQPGQEPGQEPGQEPGQKPGQEPGQEPGQEPGQEPGAQPGAQPARQGDHCPLGPGRCCRLHTVRASLEDLGWADWVLSPREVQVTMCIGACPSQFRAANLHAQIKTSLHRLRPDTVPAPCCVPASYNPMVLIQRTDTGVSLQTYDDLLARDCHCI", "modifications": "Moiety A (HOOC-(CH2)16-CO-gGlu-2XADO) on 55K of Linker (86K of fusion polypeptide)"}, "B25": {"name": "MLC027 (ligand)", "chain": "B24 chain with A65Q, Q66E, Q77A, E78Q", "modifications": "Moiety A (HOOC-(CH2)16-CO-gGlu-2XADO) on 55K of Linker (86K of fusion polypeptide)"}, "B26": {"name": "MLC020 (ligand)", "chain": "B2 chain with R20K, K30G, R140K, R162K, R178K"}}, "note": "Positions count from the first letter of the chain named."}
{"target": "human GLP-1 receptor (human, UniProt P43220 24-463)", "test": "cell-based or functional assay", "units": {"GLP-1 activity (EC50, pM)": "pM"}}
{"binder": "B1", "GLP-1 activity (EC50, pM)": 6.7}
{"binder": "B2", "GLP-1 activity (EC50, pM)": 28.7}
{"binder": "B3", "GLP-1 activity (EC50, pM)": 1.8}
{"binder": "B4", "GLP-1 activity (EC50, pM)": 5.9}
{"binder": "B5", "GLP-1 activity (EC50, pM)": 13.1}
{"binder": "B6", "GLP-1 activity (EC50, pM)": 4.3}
{"binder": "B7", "GLP-1 activity (EC50, pM)": 3.5}
{"binder": "B8", "GLP-1 activity (EC50, pM)": 7.8}
{"binder": "B9", "GLP-1 activity (EC50, pM)": 0.9}
{"binder": "B10", "GLP-1 activity (EC50, pM)": 4}
{"binder": "B11", "GLP-1 activity (EC50, pM)": 3.1}
{"binder": "B12", "GLP-1 activity (EC50, pM)": 5.7}
{"binder": "B13", "GLP-1 activity (EC50, pM)": 2.5}
{"binder": "B14", "GLP-1 activity (EC50, pM)": 8.3}
{"binder": "B15", "GLP-1 activity (EC50, pM)": 1}
{"binder": "B16", "GLP-1 activity (EC50, pM)": 8}
{"binder": "B17", "GLP-1 activity (EC50, pM)": 1.3}
{"binder": "B18", "GLP-1 activity (EC50, pM)": 6.9}
{"binder": "B19", "GLP-1 activity (EC50, pM)": 1.3}
{"binder": "B20", "GLP-1 activity (EC50, pM)": "> 900"}
{"binder": "B21", "GLP-1 activity (EC50, pM)": 1.8}
{"binder": "B22", "GLP-1 activity (EC50, pM)": 2.5}
{"binder": "B23", "GLP-1 activity (EC50, pM)": 2.5}
{"target": "T1, human GFRAL (human, UniProt Q6UXV0 19-394)", "T1 sequence (looked up)": "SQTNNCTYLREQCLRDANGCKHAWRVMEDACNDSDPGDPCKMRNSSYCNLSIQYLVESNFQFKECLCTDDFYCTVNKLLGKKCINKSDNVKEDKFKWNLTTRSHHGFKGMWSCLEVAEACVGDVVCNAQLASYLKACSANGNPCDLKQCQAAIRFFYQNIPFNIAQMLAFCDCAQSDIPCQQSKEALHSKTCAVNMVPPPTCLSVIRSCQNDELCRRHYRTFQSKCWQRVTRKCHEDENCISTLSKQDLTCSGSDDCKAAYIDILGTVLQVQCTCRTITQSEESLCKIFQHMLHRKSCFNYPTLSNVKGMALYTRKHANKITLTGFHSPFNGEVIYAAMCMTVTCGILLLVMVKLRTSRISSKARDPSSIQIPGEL", "test": "cell-based or functional assay", "units": {"GDF15 activity (EC50, pM)": "pM"}}
{"binder": "B1", "GDF15 activity (EC50, pM)": 59.2}
{"binder": "B24", "GDF15 activity (EC50, pM)": 56.1}
{"binder": "B25", "GDF15 activity (EC50, pM)": 45.4}
{"binder": "B2", "GDF15 activity (EC50, pM)": 11.6}
{"binder": "B3", "GDF15 activity (EC50, pM)": 24.6}
{"binder": "B26", "GDF15 activity (EC50, pM)": 55.9}
{"binder": "B4", "GDF15 activity (EC50, pM)": 9.5}
{"binder": "B5", "GDF15 activity (EC50, pM)": 17.9}
{"binder": "B6", "GDF15 activity (EC50, pM)": 15.3}
{"binder": "B7", "GDF15 activity (EC50, pM)": 32.8}
{"binder": "B8", "GDF15 activity (EC50, pM)": 55}
{"binder": "B9", "GDF15 activity (EC50, pM)": 52.3}
{"binder": "B10", "GDF15 activity (EC50, pM)": 62.8}
{"binder": "B11", "GDF15 activity (EC50, pM)": 29.9}
{"binder": "B12", "GDF15 activity (EC50, pM)": 67.3}
{"binder": "B13", "GDF15 activity (EC50, pM)": 110}
{"binder": "B14", "GDF15 activity (EC50, pM)": 17.3}
{"binder": "B15", "GDF15 activity (EC50, pM)": 59.4}
{"binder": "B16", "GDF15 activity (EC50, pM)": 80.5}
{"binder": "B17", "GDF15 activity (EC50, pM)": "> 5000"}
{"binder": "B18", "GDF15 activity (EC50, pM)": 48.8}
{"binder": "B19", "GDF15 activity (EC50, pM)": 116}
{"binder": "B20", "GDF15 activity (EC50, pM)": 32.9}
{"binder": "B21", "GDF15 activity (EC50, pM)": 39}
{"binder": "B22", "GDF15 activity (EC50, pM)": 27.5}
{"binder": "B23", "GDF15 activity (EC50, pM)": 29}
